Our source for the Ki values is article PMC3682478.

As a reminder, the Ki is a dissociation constant, usually derived from enzyme kinetics or from competition with a known ligand. A low value points to tighter binding.

Common to all, as to assay: kinetic pause assay
In data set [1] the target is NusA NTD-S1;RNA polymerase core (Escherichia coli;Escherichia coli, UniProt P0AFF6;P0A7Z4;P0A8V2;P0A8T7 1-200;1-329;1-1342;1-1407, |).
Data set [2] concerns the target NusA NTD-S1-KH;RNA polymerase core (Escherichia coli;Escherichia coli, UniProt P0AFF6;P0A7Z4;P0A8V2;P0A8T7 1-348;1-329;1-1342;1-1407, |).
Data set [3] concerns the target NusA NTD;RNA polymerase core (Escherichia coli;Escherichia coli, UniProt P0AFF6;P0A7Z4;P0A8V2;P0A8T7 1-137;1-329;1-1342;1-1407, |).

NusA NTD-S1-KH;RNA polymerase core, sequence (P0AFF6 1-348, chain 1 of 4): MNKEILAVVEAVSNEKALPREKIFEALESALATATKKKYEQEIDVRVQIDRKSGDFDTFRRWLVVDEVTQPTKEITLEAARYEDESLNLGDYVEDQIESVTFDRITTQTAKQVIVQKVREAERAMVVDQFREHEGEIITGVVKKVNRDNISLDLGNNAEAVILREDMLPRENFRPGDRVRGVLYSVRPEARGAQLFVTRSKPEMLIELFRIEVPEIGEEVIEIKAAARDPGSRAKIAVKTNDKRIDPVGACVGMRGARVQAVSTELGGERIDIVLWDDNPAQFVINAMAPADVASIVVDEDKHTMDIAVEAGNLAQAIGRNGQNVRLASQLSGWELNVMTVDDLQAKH
NusA NTD-S1-KH;RNA polymerase core, sequence (P0A7Z4 whole entry, chain 2 of 4): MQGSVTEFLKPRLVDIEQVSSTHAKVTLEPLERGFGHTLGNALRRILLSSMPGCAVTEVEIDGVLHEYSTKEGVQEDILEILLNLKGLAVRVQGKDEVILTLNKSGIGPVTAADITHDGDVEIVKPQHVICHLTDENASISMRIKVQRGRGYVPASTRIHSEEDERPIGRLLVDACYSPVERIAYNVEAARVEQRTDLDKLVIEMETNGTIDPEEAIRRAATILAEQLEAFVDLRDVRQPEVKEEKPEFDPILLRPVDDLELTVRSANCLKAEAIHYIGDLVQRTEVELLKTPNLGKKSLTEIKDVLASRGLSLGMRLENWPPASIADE
NusA NTD-S1-KH;RNA polymerase core, sequence (P0A8V2 whole entry, chain 3 of 4): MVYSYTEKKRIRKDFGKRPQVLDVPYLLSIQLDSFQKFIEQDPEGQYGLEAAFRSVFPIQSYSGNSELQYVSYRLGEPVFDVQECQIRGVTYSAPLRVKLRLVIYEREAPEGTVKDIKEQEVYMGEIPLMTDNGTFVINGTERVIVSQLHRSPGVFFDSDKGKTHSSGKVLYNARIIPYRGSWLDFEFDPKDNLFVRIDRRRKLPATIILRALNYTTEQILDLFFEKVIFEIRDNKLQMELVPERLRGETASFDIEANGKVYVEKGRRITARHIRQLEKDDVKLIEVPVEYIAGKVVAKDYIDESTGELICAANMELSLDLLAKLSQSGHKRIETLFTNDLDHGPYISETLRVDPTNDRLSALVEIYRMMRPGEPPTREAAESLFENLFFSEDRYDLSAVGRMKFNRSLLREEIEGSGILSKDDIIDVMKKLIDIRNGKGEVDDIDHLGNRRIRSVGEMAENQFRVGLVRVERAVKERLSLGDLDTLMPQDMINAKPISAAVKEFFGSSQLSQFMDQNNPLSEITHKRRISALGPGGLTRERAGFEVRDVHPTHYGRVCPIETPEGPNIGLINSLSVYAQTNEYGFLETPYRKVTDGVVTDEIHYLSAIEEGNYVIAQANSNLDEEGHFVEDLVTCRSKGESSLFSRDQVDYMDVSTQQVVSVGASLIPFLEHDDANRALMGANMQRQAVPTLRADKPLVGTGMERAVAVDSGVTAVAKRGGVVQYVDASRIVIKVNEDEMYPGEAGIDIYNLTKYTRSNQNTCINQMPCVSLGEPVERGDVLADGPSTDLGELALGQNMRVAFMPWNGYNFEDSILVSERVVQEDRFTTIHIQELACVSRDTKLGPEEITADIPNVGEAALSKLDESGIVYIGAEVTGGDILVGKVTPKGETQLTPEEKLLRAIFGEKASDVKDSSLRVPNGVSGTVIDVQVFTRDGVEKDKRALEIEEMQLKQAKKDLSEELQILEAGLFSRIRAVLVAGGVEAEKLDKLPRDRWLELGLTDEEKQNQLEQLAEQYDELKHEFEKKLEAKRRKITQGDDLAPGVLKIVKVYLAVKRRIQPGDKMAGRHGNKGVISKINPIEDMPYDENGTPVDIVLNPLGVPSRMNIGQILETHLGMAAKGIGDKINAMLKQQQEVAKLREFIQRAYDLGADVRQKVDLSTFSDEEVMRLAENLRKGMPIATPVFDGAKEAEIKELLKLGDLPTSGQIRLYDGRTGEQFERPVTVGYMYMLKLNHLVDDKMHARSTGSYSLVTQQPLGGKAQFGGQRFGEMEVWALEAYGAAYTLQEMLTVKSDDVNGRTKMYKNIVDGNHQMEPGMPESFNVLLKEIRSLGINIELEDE
NusA NTD-S1-KH;RNA polymerase core, sequence (P0A8T7 whole entry, chain 4 of 4): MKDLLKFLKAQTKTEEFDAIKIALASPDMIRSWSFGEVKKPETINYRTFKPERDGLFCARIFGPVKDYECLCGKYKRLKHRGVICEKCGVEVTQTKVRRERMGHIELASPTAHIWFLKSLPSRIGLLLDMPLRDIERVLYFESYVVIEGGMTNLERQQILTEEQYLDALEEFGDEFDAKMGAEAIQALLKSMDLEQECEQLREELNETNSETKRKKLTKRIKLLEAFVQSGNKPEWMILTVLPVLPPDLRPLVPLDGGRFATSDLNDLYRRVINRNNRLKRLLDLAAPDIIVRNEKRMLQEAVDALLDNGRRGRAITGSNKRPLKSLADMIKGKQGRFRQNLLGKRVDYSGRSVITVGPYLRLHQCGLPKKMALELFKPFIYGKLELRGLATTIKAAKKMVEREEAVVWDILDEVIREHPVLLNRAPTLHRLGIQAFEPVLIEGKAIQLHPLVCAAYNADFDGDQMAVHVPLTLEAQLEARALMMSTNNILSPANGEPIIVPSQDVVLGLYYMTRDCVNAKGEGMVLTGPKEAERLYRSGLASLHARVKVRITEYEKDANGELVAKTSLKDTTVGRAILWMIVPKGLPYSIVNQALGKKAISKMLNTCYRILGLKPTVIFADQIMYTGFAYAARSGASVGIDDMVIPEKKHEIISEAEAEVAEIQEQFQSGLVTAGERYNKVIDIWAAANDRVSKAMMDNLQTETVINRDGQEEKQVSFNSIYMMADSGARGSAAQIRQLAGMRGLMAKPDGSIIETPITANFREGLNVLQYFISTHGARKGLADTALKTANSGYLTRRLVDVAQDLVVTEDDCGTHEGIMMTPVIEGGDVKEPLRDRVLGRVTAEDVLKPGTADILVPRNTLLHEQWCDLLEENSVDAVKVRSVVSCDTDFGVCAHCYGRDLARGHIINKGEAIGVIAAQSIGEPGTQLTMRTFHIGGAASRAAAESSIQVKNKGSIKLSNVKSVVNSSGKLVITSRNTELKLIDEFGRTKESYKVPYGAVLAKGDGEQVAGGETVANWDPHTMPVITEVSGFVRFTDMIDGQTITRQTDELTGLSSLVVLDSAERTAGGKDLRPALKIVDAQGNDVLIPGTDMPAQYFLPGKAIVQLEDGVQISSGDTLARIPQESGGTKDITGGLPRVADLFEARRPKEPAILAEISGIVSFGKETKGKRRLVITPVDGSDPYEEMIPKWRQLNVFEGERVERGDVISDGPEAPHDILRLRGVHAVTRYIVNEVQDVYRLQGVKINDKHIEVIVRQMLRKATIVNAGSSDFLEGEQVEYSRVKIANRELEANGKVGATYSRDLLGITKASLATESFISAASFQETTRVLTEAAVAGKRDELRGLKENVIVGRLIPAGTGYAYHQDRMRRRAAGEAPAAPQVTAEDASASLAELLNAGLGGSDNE

B1: his PTC scaffold (RNA at U29) (mixed)
DNA 1: GGTCAGTACGTCCATTCGATCTTCGGAAGAGATTCAGAG
DNA 2: CTCTGAATCTCTTCCAGCACACATCAGGACGTACTGACC
RNA: CCUGACUAGUCUUUCAGGCGAUGUGUGCU
On to B1, for which the Ki in data set [1] came to 74.6 ± 19.4 nM; in data set [2] it was 11.8 ± 8.7 nM; in data set [3] it was 55.4 ± 27.8 nM.
